Results from doi:10.1101/2022.07.12.499507 (bioRxiv, 2022).

B1: Eaf1 (natural protein)
chain: MSSRPSSAVPNSASLSEDQSSDRSKFPKADDLIDERDRKLTELYCVSRLNQLLELTDENKLRKEIDAFLKKNDIRRGIRFDEASLPKLLHTAATPITKKKLKDVNLINVPNQRLSDSKMSRELPENSENVSVKSESHFVPSHDNSIRENMMDSLRPAEKTGGMWNKRPLESTMGGEEERHEKRQKMQSQSLESSNNSEMASLPISPRPPVPNALAHYTYYENIEYPPADPTEVQPAVKFKDPLIKNIMAKEIDTSDHYNENNVDALETVFLLMNDYIPSKIPQALPLAELKYMSQTLPLINLIPRAHKALTTNIINNALNEARITVVGSRIEELRRLGLWSLRQPKRFIDPWKQHNTHQNILLEEAKWMQADFKEGHKYKVAICTAMAQAIKDYWTYGEICCVKRKTLLPGKENKLSDDGRISEKSGRPSDTSRNDSDISIAGKDDIGIIANVDDITEKESAAANDNDENGKNEAGAKSDFDFADGLLSQEGAHDQIISSIDTKLLLKKPSSSSEVVLIQHEVAASSALIETEESKKELAPPFKLSIFVDELNTFEKTLIQDLPLYNGINEERPKKDDSLPFIPISKSVVSLDDNGFYKLLERQLIDEEPSISQLSKRRGMFYGNRRNHYLRPPAVPSLRYLQNRTPTIWLSEDDQELVKNINTYGYNWELISAHMTHRLTYSYLSNIERRTPWQCFERFVQLNERFNFSDLKGPRAHSAQQWLIEAHKFQQRQNRRISPLGVNTESIQRGHRRLRWASMFEAIRKCMKKRENTPRPNPTQPRKPLDCKNMKVPTPAEMSLLKAQRDEALRRDIQLRRTVKNRLQQRQQQSQQAHSSRAQSPIPSNGKSSSNLARNGQASAPRPNQKQYTEQDIIESYSRKLLEQKPDIGPEMALKAAKNYYRTLREQQQQLKQHQIQQQRQQLQEESSHVQQLQQLQPGSQAPPPKSSPSQSSLSNISNINSAPRIKSPTPQEILQRFQKQ
B2: Yng2 (natural protein)
chain: MDPSLVLEQTIQDVSNLPSEFRYLLEEIGSNDLKLIEEKKKYEQKESQIHKFIRQQGSIPKHPQEDGLDKEIKESLLKCQSLQREKCVLANTALFLIARHLNKLEKNIALLEEDGVLAPVEEDGDMDSAAEASRESSVVSNSSVKKRRAASSSGSVPPTLKKKKTSRTSKLQNEIDVSSREKSVTPVSPSIEKKIARTKEFKNSRNGKGQNGSPENEEEDKTLYCFCQRVSFGEMVACDGPNCKYEWFHYDCVNLKEPPKGTWYCPECKIEMEKNKLKRKRN
B3: Eaf3 (natural protein)
chain: MVDLEQEFALGGRCLAFHGPLMYEAKILKIWDPSSKMYTSIPNDKPGGSSQATKEIKPQKLGEDESIPEEIINGKCFFIHYQGWKSSWDEWVGYDRIRAYNEENIAMKKRLANEAKEAKKSLLEQQKKKKLSTSLGGPSNGGKRKGDSRSNASISKSTSQSFLTSSVSGRKSGRSSANSLHPGSSLRSSSDQNGNDDRRRSSSLSPNMLHHIAGYPTPKISLQIPIKLKSVLVDDWEYVTKDKKICRLPADVTVEMVLNKYEHEVSQELESPGSQSQLSEYCAGLKLYFDKCLGNMLLYRLERLQYDELLKKSSKDQKPLVPIRIYGAIHLLRLISVLPELISSTTMDLQSCQLLIKQTEDFLVWLLMHVDEYFNDKDPNRSDDALYVNTSSQYEGVALGM
B4: Esa1 (enzyme)
chain: MSHDGKEEPGIAKKINSVDDIIIKCQCWVQKNDEERLAEILSINTRKAPPKFYVHYVNYNKRLDEWITTDRINLDKEVLYPKLKATDEDNKKQKKKKATNTSETPQDSLQDGVDGFSRENTDVMDLDNLNVQGIKDENISHEDEIKKLRTSGSMTQNPHEVARVRNLNRIIMGKYEIEPWYFSPYPIELTDEDFIYIDDFTLQYFGSKKQYERYRKKCTLRHPPGNEIYRDDYVSFFEIDGRKQRTWCRNLCLLSKLFLDHKTLYYDVDPFLFYCMTRRDELGHHLVGYFSKEKESADGYNVACILTLPQYQRMGYGKLLIEFSYELSKKENKVGSPEKPLSDLGLLSYRAYWSDTLITLLVEHQKEITIDEISSMTSMTTTDILHTAKTLNILRYYKGQHIIFLNEDILDRYNRLKAKKRRTIDPNRLIWKPPVFTASQLRFAW
B5: Gal4-VP16 fusion protein (other)
chain: MKLLSSIEQACDICRLKKLKCSKEKPKCAKCLKNNWECRYSPKTKRSPLTRAHLTEVESRLERLEQLFLLIFPREDLDMILKMDSLQDIKALLTGLFVQDNVNKDAVTDRLASVETDMPLTLRQHRISATSSSEESSNKGQRQLTVSAPPTDVSLGDELHLDGEDVAMAHADALDDFDLDMLGDGDSPGPGFTPHDSAPYGALDMADFEFEQMFTDALGIDEYGG
B6: Epl1 (natural protein)
chain: MPTPSNAIEINDGSHKSGRSTRRSGSRSAHDDGLDSFSKGDSGAGASAGSSNSRFRHRKISVKQHLKIYLPNDLKHLDKDELQQREVVEIETGVEKNEEKEVHLHRILQMGSGHTKHKDYIPTPDASMTWNEYDKFYTGSFQETTSYIKFSATVEDCCGTNYNMDERDETFLNEQVNKGSSDILTEDEFEILCSSFEHAIHERQPFLSMDPESILSFEELKPTLIKSDMADFNLRNQLNHEINSHKTHFITQFDPVSQMNTRPLIQLIEKFGSKIYDYWRERKIEVNGYEIFPQLKFERPGEKEEIDPYVCFRRREVRHPRKTRRIDILNSQRLRALHQELKNAKDLALLVAKRENVSLNWINDELKIFDQRVKIKNLKRSLNISGEDDDLINHKRKRPTIVTVEQREAELRKAELKRAAAAAAAAKAKNNKRNNQLEDKSSRLTKQQQQQLLQQQQQQQQNALKTENGKQLANASSSSTSQPITSHVYVKLPSSKIPDIVLEDVDALLNSKEKNARKFVQEKMEKRKIEDADVFFNLTDDPFNPVFDMSLPKNFSTSNVPFASIASSKFQIDRSFYSSHLPEYLKGISDDIRIYDSNGRSRNKDNYNLDTKRIKKTELYDPFQENLEIHSREYPIKFRKRVGRSNIKYVDRMPNFTTSSTKSACSLMDFVDFDSIEKEQYSREGSNDTDSINVYDSKYDEFVRLYDKWKYDSPQNEYGIKFSDEPARLNQISNDTQVIRFGTMLGTKSYEQLREATIKYRRDYITRLKQKHIQHLQQQQQQQQQQQQQAQQQKQKSQNNNSNSSNSLKKLNDSLINSEAKQNSSITQKNSS
B7: Eaf2 (natural protein)
chain: MSSSDIFDVLNIKQKSRSPTNGQVSVPSSSAANRPKPQVTGMQRELFNLLGENQPPVVIKSGNNFKEKMLSTSKPSPWSFVEFKANNSVTLRHWVKGSKELIGDTPKESPYSKFNQHLSIPSFTKEEYEAFMNENEGTQKSVESEKNHNENFTNEKKDESKNSWSFEEIEYLFNLCKKYDLRWFLIFDRYSYNNSRTLEDLKEKFYYTCRNYFKASDPSNPLLSSLNFSAEKEIERKKYLQRLLSRSAAEIAEEEALVVESKKFEMAAKRTLAERESLLRLLDSPHSDQTITQYLTSQGMSQLYNALLADKTRKRKHDLNIPENPWMKQQQQFAQHRQLQQLNVKKSEVKENLSPKKTKRQRQEMQTALKRKSESAYAEQLLKDFNSDERKALGVITHGEKLSPGVYLRSTKLSTFKPALQNKILAILQELSLPSRPVMPSFDVMERQEELLKKINTLIDLKKHVDKYEAGMSITK
B8: Eaf6 (natural protein)
chain: MTDELKSYEALKAELKKSLQDRREQEDTFDNLQQEIYDKETEYFSHNSNNNHSGHGGAHGSKSHYSGNIIKGFDTFSKSHHSHADSAFNNNDRIFSLSSATYVKQQHGQSQND

Assays:
Tra1 = Tra1 (Saccharomyces cerevisiae, UniProt P38811 1-3744); assay: cross-linking
Epl1 [1] = target: B6; assay: cryo-EM structure
Epl1 [2] = target: B6; assay: cross-linking
Eaf1 = target: B1; assay: cryo-EM structure
Yng2 = target: B2; assay: cryo-EM structure

Sequence of Tra1 (P38811 whole entry): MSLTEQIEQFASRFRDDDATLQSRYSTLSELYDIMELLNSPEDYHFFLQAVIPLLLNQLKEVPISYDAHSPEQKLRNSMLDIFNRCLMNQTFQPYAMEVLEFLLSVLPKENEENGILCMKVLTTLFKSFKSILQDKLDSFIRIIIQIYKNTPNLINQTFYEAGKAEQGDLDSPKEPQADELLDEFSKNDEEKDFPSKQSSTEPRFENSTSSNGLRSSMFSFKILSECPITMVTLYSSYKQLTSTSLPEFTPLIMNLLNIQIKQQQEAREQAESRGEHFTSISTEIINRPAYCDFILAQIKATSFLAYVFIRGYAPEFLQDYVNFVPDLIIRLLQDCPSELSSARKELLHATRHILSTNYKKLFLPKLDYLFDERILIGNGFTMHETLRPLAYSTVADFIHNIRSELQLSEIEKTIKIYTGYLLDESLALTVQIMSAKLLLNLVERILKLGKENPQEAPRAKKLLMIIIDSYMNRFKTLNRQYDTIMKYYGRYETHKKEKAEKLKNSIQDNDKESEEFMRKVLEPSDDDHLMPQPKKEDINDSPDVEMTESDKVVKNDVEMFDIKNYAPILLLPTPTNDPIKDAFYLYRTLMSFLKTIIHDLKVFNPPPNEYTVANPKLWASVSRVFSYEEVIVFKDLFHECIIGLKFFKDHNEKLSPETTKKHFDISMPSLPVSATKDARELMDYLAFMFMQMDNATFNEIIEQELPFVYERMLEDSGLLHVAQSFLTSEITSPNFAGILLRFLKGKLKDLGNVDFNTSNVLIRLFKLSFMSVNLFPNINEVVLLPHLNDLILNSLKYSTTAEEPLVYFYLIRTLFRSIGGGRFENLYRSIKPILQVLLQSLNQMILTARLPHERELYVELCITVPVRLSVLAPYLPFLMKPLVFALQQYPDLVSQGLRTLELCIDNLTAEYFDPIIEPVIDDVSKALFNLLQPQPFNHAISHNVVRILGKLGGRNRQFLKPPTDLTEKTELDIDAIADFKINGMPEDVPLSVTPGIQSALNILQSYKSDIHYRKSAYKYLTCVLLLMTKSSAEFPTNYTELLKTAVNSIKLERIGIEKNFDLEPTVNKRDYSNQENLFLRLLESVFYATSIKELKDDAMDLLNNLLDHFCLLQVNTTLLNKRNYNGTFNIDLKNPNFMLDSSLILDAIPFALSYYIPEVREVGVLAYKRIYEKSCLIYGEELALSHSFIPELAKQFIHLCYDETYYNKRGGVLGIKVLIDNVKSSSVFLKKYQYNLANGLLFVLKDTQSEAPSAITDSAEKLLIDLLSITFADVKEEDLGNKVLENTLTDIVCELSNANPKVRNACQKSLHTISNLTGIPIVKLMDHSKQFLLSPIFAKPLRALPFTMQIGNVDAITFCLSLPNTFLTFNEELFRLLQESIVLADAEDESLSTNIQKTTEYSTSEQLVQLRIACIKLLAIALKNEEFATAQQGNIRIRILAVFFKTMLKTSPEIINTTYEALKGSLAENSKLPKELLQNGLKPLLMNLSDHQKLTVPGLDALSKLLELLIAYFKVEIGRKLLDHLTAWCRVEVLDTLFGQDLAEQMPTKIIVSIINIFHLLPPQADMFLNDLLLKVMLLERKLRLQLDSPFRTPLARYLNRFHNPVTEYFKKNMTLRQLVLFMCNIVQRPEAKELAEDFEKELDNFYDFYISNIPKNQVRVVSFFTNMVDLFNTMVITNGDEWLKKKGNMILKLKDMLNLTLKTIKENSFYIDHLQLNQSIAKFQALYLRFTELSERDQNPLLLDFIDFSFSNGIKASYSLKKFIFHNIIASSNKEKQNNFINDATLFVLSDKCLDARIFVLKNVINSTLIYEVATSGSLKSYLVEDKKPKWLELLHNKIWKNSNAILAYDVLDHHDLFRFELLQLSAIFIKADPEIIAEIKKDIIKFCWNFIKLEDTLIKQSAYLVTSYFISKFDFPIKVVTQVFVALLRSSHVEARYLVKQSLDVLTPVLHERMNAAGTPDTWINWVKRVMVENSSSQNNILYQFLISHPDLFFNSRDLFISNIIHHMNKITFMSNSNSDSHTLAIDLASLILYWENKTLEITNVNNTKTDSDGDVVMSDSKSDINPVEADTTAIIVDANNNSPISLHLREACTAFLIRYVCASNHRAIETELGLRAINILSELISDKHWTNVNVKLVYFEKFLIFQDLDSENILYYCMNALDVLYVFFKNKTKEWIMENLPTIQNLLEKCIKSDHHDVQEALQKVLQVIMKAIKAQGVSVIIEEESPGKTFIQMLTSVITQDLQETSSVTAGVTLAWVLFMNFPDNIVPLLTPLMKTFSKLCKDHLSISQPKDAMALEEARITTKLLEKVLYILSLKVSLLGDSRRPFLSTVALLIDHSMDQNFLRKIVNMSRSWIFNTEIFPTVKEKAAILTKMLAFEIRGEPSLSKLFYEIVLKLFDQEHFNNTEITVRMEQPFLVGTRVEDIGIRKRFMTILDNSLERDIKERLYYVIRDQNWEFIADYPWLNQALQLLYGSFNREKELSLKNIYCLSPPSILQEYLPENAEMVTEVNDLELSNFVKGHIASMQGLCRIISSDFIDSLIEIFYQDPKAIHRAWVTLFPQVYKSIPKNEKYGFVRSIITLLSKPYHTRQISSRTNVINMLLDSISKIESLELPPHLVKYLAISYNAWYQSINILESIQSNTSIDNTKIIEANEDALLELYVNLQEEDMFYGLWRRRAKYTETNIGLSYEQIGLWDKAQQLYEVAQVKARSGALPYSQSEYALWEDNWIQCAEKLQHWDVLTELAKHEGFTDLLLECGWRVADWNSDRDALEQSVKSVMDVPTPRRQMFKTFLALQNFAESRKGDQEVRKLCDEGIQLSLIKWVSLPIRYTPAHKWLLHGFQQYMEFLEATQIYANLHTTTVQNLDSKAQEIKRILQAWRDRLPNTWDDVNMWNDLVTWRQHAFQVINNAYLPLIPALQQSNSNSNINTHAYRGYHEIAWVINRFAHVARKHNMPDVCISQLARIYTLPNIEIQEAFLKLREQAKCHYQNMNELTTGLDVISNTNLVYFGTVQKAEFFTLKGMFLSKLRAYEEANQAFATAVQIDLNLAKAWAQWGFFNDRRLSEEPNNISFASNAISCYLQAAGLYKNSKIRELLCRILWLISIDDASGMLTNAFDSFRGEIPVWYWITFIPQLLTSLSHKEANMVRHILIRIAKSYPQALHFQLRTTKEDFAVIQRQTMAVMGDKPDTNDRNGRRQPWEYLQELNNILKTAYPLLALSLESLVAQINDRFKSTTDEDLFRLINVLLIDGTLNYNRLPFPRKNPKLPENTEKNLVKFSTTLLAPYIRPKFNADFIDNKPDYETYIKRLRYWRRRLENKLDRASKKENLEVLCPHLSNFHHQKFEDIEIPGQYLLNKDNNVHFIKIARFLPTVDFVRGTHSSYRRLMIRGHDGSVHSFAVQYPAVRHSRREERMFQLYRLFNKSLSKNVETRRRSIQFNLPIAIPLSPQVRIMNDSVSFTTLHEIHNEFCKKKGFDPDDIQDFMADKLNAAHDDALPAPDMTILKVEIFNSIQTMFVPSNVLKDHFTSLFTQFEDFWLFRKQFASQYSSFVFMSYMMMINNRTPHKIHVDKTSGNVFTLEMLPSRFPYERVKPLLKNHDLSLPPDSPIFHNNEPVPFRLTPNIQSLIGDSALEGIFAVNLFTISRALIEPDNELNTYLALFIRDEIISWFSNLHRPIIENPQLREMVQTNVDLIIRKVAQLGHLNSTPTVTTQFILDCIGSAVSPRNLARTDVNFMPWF

Binder: B1
binding result (Tra1): binds

Binder: B2
binding result (Epl1 [1]): binds

Binder: B3
binding result (Epl1 [2]): binds

Binder: B4
binding result (Epl1 [1]): binds

Binder: B5
binding result (Tra1): binds

Binder: B6
binding result (Eaf1): binds

Binder: B7
binding result (Eaf1): binds

Binder: B8
binding result (Epl1 [1]): binds | binding result (Yng2): binds
